Measurements: US20230056445A1 (published 2023)
Like-named read-outs stand apart in the source and are kept apart here.

Key:
[1] = biological target: T1, human IL-7Rα (IL-7R) on human PBMCs / monocytes (human, UniProt P16871 21-459); experiment: cell-based or functional assay
T1 chain: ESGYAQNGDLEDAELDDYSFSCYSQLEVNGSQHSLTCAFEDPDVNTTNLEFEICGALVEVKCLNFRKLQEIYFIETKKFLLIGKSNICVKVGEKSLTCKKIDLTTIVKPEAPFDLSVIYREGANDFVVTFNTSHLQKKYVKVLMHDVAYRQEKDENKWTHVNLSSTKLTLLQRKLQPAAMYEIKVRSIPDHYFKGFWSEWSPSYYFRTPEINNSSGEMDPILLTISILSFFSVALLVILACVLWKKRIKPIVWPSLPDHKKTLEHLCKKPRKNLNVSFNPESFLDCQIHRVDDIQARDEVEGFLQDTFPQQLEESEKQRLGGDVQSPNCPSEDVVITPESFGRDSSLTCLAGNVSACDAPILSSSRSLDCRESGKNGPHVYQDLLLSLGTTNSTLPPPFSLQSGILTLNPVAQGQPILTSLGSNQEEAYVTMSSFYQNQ

[2] = biological target: T1, human IL-7Rα (IL-7R) on human PBMCs / …; experiment: cell-based or functional assay

- IL-7 induced pSTAT5 in hPBMCs EC50 [1]: 2.86 nM
- IL-7 induced pSTAT5 in hPBMCs EC50 [2]: 2.86 nM
B1: V7R-2E9 (VHH, not shown: small tags and cut ends)
VHH: EVQLVESGGGLVQAGGSLRLSCESSISTFSSDAMGWFRQAPGKEREFLAAIGWSGAVTHYSDSVQGRFTISRDNAKNTVYLQMNSLKSEDTGRYYCAEDYDTDVWQYWGQGTQVTVSS
